{
  "source": "paper PMC5817926",
  "key": {"[1]": {"target": "ubiquitin polyprotein composed of nine identical repeats (Ubi)9 (UniProt P0CG48)", "assay": "single-molecule force-clamp spectroscopy (AFM); collapsed (molten globule-like) states: polyprotein tethered between a gold surface and the cantilever tip, unfolded, force quenched for tq 0.5 to 15 s with 5 uM chaperone (DnaK with ADP); refolding yield read in a test pulse; constants from a multiparametric fit of a kinetic model; PBS + 5 mM MgCl2, pH 7.4, 22 C"}, "[2]": {"target": "(I27)8 polyprotein of the I27th Ig domain of titin", "assay": "single-molecule force-clamp spectroscopy (AFM); collapsed (molten globule-like) states: polyprotein tethered between a gold surface and the cantilever tip, unfolded, force quenched for tq 0.5 to 15 s with 5 uM chaperone (DnaK with ADP); refolding yield read in a test pulse; constants from a multiparametric fit of a kinetic model; PBS + 5 mM MgCl2, pH 7.4, 22 C"}, "[3]": {"target": "(I27)8 polyprotein of the I27th Ig domain of titin"}, "[4]": {"target": "ubiquitin polyprotein composed of nine identical repeats (Ubi)9 (UniProt P0CG48)"}, "[5]": {"target": "(I27)8 polyprotein of the I27th Ig domain of titin", "assay": "single-molecule force-clamp spectroscopy (AFM) with a kinetic model fit; polyprotein tethered between gold and cantilever, 5 uM chaperone in solution (DnaK with ADP); PBS + 5 mM MgCl2 pH 7.4, 22 C; binding to the collapsed state during the quench at 0 pN (tq 0.5-15 s); constants from a multiparametric fit of the kinetic model to the refolding kinetics"}, "[6]": {"target": "ubiquitin polyprotein composed of nine identical repeats (Ubi)9 (UniProt P0CG48)", "remark": "listed apart in the source"}, "[7]": {"target": "ubiquitin polyprotein composed of nine identical repeats (Ubi)9", "assay": "single-molecule force-clamp spectroscopy (AFM) with a kinetic model fit; (Ubi)9 tethered between gold and cantilever, 5 uM chaperone in solution (DnaK with ADP); PBS + 5 mM MgCl2 pH 7.4, 22 C; binding to ubiquitin mechanically unfolded and held extended at 120 pN; constants from a multiparametric fit of ordinary differential equations to the refolding yields"}, "[8]": {"target": "ubiquitin polyprotein composed of nine identical repeats (Ubi)9 (UniProt P0CG48)", "remark": "listed apart in the source"}, "[9]": {"target": "ubiquitin polyprotein composed of nine identical repeats (Ubi)9", "assay": "single-molecule force-clamp spectroscopy (AFM) with a kinetic model fit; (Ubi)9 tethered between gold and cantilever, 5 uM DnaJ in solution; PBS + 5 mM MgCl2 pH 7.4, 22 C; binding to ubiquitin held extended at 170 pN for text 0-30 s, quench 5 s; kon and koff of the extended state as free parameters of the kinetic model"}, "[10]": {"target": "ubiquitin polyprotein composed of nine identical repeats (Ubi)9 (UniProt P0CG48)", "remark": "listed apart in the source"}, "[11]": {"target": "ubiquitin polyprotein composed of nine identical repeats (Ubi)9 (UniProt P0CG48)", "assay": "single-molecule force-clamp spectroscopy (AFM); extended state: polyprotein tethered between a gold surface and the cantilever tip, unfolded and held extended at high force (120 pN; 170 pN for the constants of the extended conformation) for text 1 to 30 s with 5 uM chaperone (DnaK with ADP); refolding yield read in a test pulse after tq = 5 s; constants from a multiparametric fit of a kinetic model; PBS + 5 mM MgCl2, pH 7.4, 22 C"}},
  "data": [
    {"substance": "DnaK (Hsp70) (from UniProt P0A6Y8 1-638) (natural protein)", "values": [
      {"measurement": "Kd", "setting": "[1]", "result": 140, "unit": "nM"},
      {"measurement": "Kd", "setting": "[2]", "result": 270, "unit": "nM"},
      {"measurement": "refolding yield of I27 with DnaK(ADP)", "setting": "[3]", "result": 50, "unit": "%"},
      {"measurement": "plateau of the refolding yield of ubiquitin in force-quench trajectories (tq 0.5 to 15 s) with 5 μM DnaK(ADP)", "setting": "[4]", "result": 30, "unit": "%"},
      {"measurement": "koff", "setting": "[5]", "result": 0.029, "unit": "s⁻¹"}
    ]},
    {"substance": "DnaJ (Hsp40) (from UniProt P08622 1-376) (natural protein)", "values": [
      {"measurement": "rate of the exponential decrease of the refolding efficiency of ubiquitin with the time held extended (text 1 to 30 s, tq = 5 s) with 5 μM DnaJ", "setting": "[6]", "result": 0.27, "unit": "s⁻¹"},
      {"measurement": "koff", "setting": "[7]", "result": 0.0492, "unit": "s⁻¹"},
      {"measurement": "kon", "setting": "[7]", "result": 29900, "unit": "M⁻¹ s⁻¹"},
      {"measurement": "plateau of the refolding yield of ubiquitin in force-quench trajectories (tq 0.5 to 15 s) with 5 μM DnaJ (~75% without DnaJ)", "setting": "[8]", "result": 30, "unit": "%"},
      {"measurement": "Kd", "setting": "[2]", "result": 330, "unit": "nM"},
      {"measurement": "kon", "setting": "[2]", "result": 250000, "unit": "M⁻¹ s⁻¹"},
      {"measurement": "kon", "setting": "[9]", "result": 48700, "unit": "M⁻¹ s⁻¹"},
      {"measurement": "refolding percentage of ubiquitin after 15 s stretched at 50 to 300 pN with DnaJ, tq = 5 s (10% at 150 to 170 pN, ~30% at 300 pN, ~50% at 50 pN)", "setting": "[10]", "result": 50, "unit": "%"},
      {"measurement": "koff", "setting": "[5]", "result": 0.0472, "unit": "s⁻¹"},
      {"measurement": "Kd", "setting": "[11]", "result": 940, "unit": "nM"}
    ]}
  ]
}
